Like-named read-outs stand apart in the source and are kept apart here.
Key:
[1] = Ca2+ titration in the presence of chromophoric chelator quin 2; type: binding; details: for Ka, calcium association constant: 2 mM Tris/HCl, chelator quin 2; for Kd: read-out: KD, calcium
Excerpt: To study the Ca^2+ binding equilibrium, the proteins listed in table 1 including the D87A BAMLET obtained as described in Example 7, and HAMLET, was titrated with calcium in the presence of a chromophoric chelator, quin 2, for which the absorbance at 263 nm decreases (approx. 85%) upon Ca^2+-binding. The method relies on competition for calcium between the protein and chelator, and can be used to quantitate high affinity sites (ca. 10^7-5·10^9 M^−1 at low salt, and ca. 5 10^5-1·10^8 M^−1 at 0.15 NaCl) when quin 2 is the chelator. The exact concentration of the chelator solution (in the range of 25-30 μM) was calculated from the absorbance at 239.5 nm in the presence of excess calcium (using ε239.5=4.2×10^4 L mol^−1 cm^−1 for quin 2). Lyophilised protein was dissolved in calcium free (<1 μM Ca^2+) chelator solution at a concentration of 25-30 μM. The absorbance at 263 nm (A263) was recorded for the protein/chelator solution using a UV/Vis 920 spectrophotometer (GBC Scientific Equipment Pty Ltd, Victoria, Australia). Calcium solution (3 mM CaCl2 in 2 mM Tris/HCl, pH 7.5, with or without 0.15 M NaCl) was added in portions of 4 μl. A263 was recorded after each calcium addition.
A more concentrated Ca^2+ stock (10 mM) was used at the end of the titrations of the proteins in 0.15 M NaCl. The data was analysed by least squares fitting directly to the measured quantity, absorbance versus total calcium concentration, using the CaLigator software (Andre and Linse, 2002).

[2] = cited from earlier work
[3] = 20° C.; cited from earlier work

B1: α-lac human: Native human α-lactalbumin purified from human milk (protein, UniProt P00709 20-142, looked up)
Alpha-lactalbumin: KQFTKCELSQLLKDIDGYGGIALPELICTMFHTSGYDTQAIVENNESTEYGLFQISNKLWCKSSQVPQSRNICDISCDKFLDDDITDDIMCAKKILDIKGIDYWLAHKALCTEKLEQWLCEKL
- factor of decrease of Ca2+ affinity between low and physiological ionic strength [1]: 200
- Ka, calcium association constant ([1]; 150 mM NaCl (physiological salt)): 8.3e+06 M⁻¹
- Ka, calcium association constant ([1]; 150 mM NaCl (physiological salt), listed as α-lactalbumin): 8.3e+06 M⁻¹
- Ka, calcium association constant ([1]; low salt (no added salt)): 1.8e+09 M⁻¹
- Ka, calcium association constant ([1]; low salt (no added salt), listed as α-lactalbumin): 1.8e+09 M⁻¹
- Kd ([1]; low salt): 0.56 nM
- Kd ([1]; physiological salt, 0.15 M NaCl): 120 nM
- Ka ([2]; 5 mM Tris, 0.1 mM EDTA, pH 7.2, 298 K, CD 270 nm): 3e+08 M⁻¹
- Ka ([2]; H2O, 100 mM KCl, pH 7, 294 K, EDTA, 43Ca-NMR): 2e+07 M⁻¹
- Ka for Na+ [3]: 100 M⁻¹

From patent US20050085416A1, “Biologically active complex” (priority 2002, published 2005)
